# B1: M. tuberculosis SepFΔML (domain or fragment)
# chain: EDGHPLSKITTLRPKDYSEARTIGERFRDGSPVIMDLVSMDNADAKRLVDFAAGLAFALRGSFDKVATKVFLLSPADVDVSPEERRRIAETGFYAYQ
# notes: also called MtbSepFΔML
# Target: the molecule itself
# Assay: negative stain electron microscopy; MtbSepFΔML 50 µM in 50 mM HEPES pH 7.4, 300 mM KCl, 10 mM MgCl2
protein,measurement,value
B1,binding result,binds
